Data on one molecule can be found in patent publication US20040096444A1 (DUKE UNIVERSITY, published 2004).

Usually Kd stands for the concentration at which binding is half-saturated. A higher Kd goes with weaker binding.

The target of this experiment is T1, VDAC1 on the surface of human umbilical vein endothelial cells (HUVEC) (human, UniProt P21796 2-283).
T1 construct: Endogenous protein on primary HUVEC; The assays were done on whole cells; also called K5 receptor on HUVEC; plasma membrane VDAC1
T1 sequence (P21796 2-283): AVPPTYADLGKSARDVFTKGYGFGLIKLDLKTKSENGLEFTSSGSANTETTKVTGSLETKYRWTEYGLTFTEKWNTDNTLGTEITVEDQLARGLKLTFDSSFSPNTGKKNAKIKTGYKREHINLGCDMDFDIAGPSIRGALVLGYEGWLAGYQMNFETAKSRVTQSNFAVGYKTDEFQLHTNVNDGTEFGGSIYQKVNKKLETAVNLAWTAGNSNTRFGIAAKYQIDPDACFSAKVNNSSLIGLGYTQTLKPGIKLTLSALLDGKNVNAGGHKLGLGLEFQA
Description: 125I-K5 saturation binding to HUVEC monolayers at 4 C, fit to the Langmuir isotherm.
Description: Ligand binding analysis. Cells were grown in tissue culture plates until the monolayers were confluent. The cells were washed in HBSS. […] Wells were stripped from the plates and radioactivity was determined. Molecules of ligand bound were calculated after substraction of nonspecific binding measured in the presence of 50 mM p-amino-benzamidine.

B1: plasminogen kringle 5 (K5), purified from pepsin digestion of human mini-Pg (ligand, UniProt P00747 481-560, looked up)
chain: CMFGNGKGYRGKRATTVTGTPCQDWAAQEPHRHSIFTPETNPRAGLEKNYCRNPDGDVGGPWCYTTNPRKLYDYCDVPQC
modifications: 125I-labeled Bolton Hunter reagent (labelled form used in the binding assays)
notes: domain: kringle 5; Proteolytic fragment (elastase, then pepsin) of purified human Pg 2; also called Pg kringle 5; angiostatin kringle-5
In turn, B1 gave a Kd of 28 nM.
